Data set [1] is described as follows: Pharmacokinetics after subcutaneous administration in mice (serum amylin by ELISA). Type of data set: in vivo. The procedure: Swiss male mice (8 weeks old; n = 4 per group) were administrated of free or monoPEGylated human amylin (both at 400 μg peptide / kg body weight) by subcutaneous route. At the indicated time interval, blood was collected with glass capillary tubes from retro-orbital access and the serum was separated. The concentration of amylin in the plasma was evaluated by ELISA (Merck Millipore, cat # EZHA-52K) by following the manufacturer protocol. The sensitivity of the ELISA assay kit for the monoPEGylated human amylin product was similar to the non-conjugated human amylin as inferred from control analytical curves. In case needed, the mice plasma samples were diluted accordingly in order to achieve the desired concentration range of the ELISA kit. Glucagon was evaluated from the same serum samples, by using an ELISA kit (Merck Millipore, Cat # EZGLU-30K) according to instructions of the manufacturer.
Continuous lines are best fitting of single-exponential decay function to data. b) Modulation of glucagon. […] The raw data can be found in S2 File.

The target in data set [2] is T1, Fluorescein-Labelled Murine Amylin (Mus musculus, UniProt P12968).
T1 sequence (P12968 38-74 limits assumed): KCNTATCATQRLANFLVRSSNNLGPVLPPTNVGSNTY
The data set can be described thus: Isothermal binding assay, fluorescence anisotropy (amylin self-assembly). The settings on record: PBS pH 7.4, 25°C; for Anisotropy: 50 nM labelled murine amylin, mean of five measurements. The protocol: The proteins (CTR, RAMP and murine amylin) were labeled with fluorescein isothiocyanate (FITC; Sigma-Aldrich; 0.2 mM final concentration, from stock in DMSO at 5 mM freshly prepared) in 20 mM Na2HPO4, 300 mM NaCl, pH 7.0, for 60 min at 25°C protected from light. The reaction was quenched by adding an excess of Tris-HCl. The free fluorescein was removed by chromatography with a Sephadex G25 desalting column (GE Healthcare, Brazil). The labeling efficiency, final yield and protein quantification were calculated as described elsewhere. The labeling efficiency was below 1 mol FITC:1 mol protein for all labeling procedures. Labeled proteins were stored until use protected from light at -20°C for no longer than 3 months.
The fluorescence measurements were conducted in a Spectramax M5 (Molecular Devices) microplate reader, with excitation and emission set at 480 nm and 520 nm respectively, with cut-off filter 515 nm. The results represent the mean and the standard error of the mean (SEM) of five measurements. Binding data analysis was performed with SigmaPlot 12.5 (Systat Software, Inc., CA, USA).
Fig 4 Amylin self-assembly and interaction with co-receptors. […] Assays were conducted in PBS, pH 7.4, 25°C, in the presence of 50 nM FITC-labelled proteins (amylin, CTR–1 or RAMP–3). Ex 480 nm, Em 520 nm, filter 515 nm. The raw data can be found in S2 File.

[3] abbreviates: (unit not given), Swiss male mice, s.c., 400 μg peptide/kg.

Bridges are numbered along the chain shown (N, C = ends). Where no end group is shown, it is not given here.

In the case of “PEGylated human amylin: human amylin monoconjugated at the N-terminal Lys1 region with 5 kDa methoxyl polyethylene glycol succinimidyl carbonate (mPEGsc5k) (KCNTATCATQRLANFLVHSSNNFGAILSSTNVGSNTY-NH2; disulfide 2-7; also: one mPEG 5 kDa (mPEGsc5k) on a Lys1 amino group)”, the “Half Life (One phase decay, best-fit value)” value in data set [1] (setting [3]) is 2.988. Moreover, the “Tau (One phase decay, best-fit value)” value in data set [1] (setting [3]) is on record as 4.311. In data set [1] (male, Swiss, mouse, in vivo, sc), this substance had a half-life in vivo of 179 min. The “self-assembly with amylin (in words)” value in data set [2] (fluorescence anisotropy, 50 nM FITC-labelled protein) is recorded as “PEGylation did not abolish the assembly”. In addition, the Anisotropy in data set [2] (ligand 0.0492 µM) was found to be 0.0707; in data set [2] (ligand 0.1229 µM) it was 0.0637; in data set [2] (ligand 0.3072 µM), 0.0575; in data set [2] (ligand 0.768 µM) it was 0.0698; in data set [2] (ligand 1.92 µM), 0.0836; in data set [2] (ligand 4.8 µM), 0.232. Besides, the Anisotropy in data set [2] (ligand 12 µM) is 0.2936; in data set [2] (ligand 30 µM), 0.27.

Values taken from article PMC4598023 (PLoS ONE, 2015).
